The source of these data is patent US20120263651.

The data set concerns the target endogenous RelA in A549 cells (Homo sapiens) (UniProt Q04206). Particulars: two-step ChIP.

Read-outs that look alike come from different tables or passages of the source.

Chain of endogenous RelA in A549 cells (Homo sapiens) (Q04206 whole entry): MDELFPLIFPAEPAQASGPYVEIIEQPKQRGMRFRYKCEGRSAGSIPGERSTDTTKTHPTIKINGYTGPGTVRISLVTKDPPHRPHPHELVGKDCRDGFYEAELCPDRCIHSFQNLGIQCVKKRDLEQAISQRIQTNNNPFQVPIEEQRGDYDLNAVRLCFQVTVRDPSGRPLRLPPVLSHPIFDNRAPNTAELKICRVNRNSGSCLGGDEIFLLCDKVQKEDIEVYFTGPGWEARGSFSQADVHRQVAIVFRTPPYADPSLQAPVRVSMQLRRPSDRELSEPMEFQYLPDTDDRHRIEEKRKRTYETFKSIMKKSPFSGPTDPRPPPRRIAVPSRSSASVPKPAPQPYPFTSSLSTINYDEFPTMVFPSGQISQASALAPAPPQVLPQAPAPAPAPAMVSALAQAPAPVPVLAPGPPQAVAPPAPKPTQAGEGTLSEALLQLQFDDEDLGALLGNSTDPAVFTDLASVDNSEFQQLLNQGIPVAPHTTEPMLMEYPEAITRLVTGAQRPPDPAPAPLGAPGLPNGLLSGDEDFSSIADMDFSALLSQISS

Under “reduced by transfected P028F4 (4 uM)”, Gro-beta promoter chromatin displayed a binding signal (fold increase with TNF) of 3.5.
Take TNFAIP3/A20 promoter chromatin: the binding signal (fold increase with TNF) (reduced to less than 2-fold by P028F4) is 3.5.
